Measurements from article PMC10781284, “Fluorescence Super-Resolution Imaging Chip for Gene Silencing Exosomes”.

Biological target: PD-L1 (on HeLa exosomes) (human, UniProt Q9NZQ7 19-290)
Assay: fluorescence colocalization on captured exosomes (AF647/PKH26); 1 nM aptamer; exosomes captured by CD63 aptamer; microfluidic channel, PBS (10 mM, pH 7.4) washes, 2% BSA block at room temperature; exosomes in culture medium; binding buffer of the aptamer not stated
Details: protein: native; label: 5' Alexa Fluor 647

Chain of PD-L1 (on HeLa exosomes) (Q9NZQ7 19-290): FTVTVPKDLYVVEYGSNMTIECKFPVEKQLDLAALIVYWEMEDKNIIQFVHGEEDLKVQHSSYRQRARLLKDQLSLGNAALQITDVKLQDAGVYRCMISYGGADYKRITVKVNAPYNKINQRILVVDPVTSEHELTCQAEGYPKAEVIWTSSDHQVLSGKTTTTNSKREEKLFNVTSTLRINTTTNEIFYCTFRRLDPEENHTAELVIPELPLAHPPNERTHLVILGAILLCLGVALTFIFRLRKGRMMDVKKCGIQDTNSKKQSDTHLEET

TACAGGTTCTGGGGGGTGGGTGGGGAACCTGTT (ssDNA) [PD-L1 aptamer (PD-L1 adaptor strand)]
binding result: binds
